Assay results: paper PMC9482650, “Quantitative fragmentomics allow affinity mapping of interactomes” (Nature Communications, 2022)

T1: LNX2_2, Q8N448
T1 sequence (Q8N448 334-432, limits assumed, looked up): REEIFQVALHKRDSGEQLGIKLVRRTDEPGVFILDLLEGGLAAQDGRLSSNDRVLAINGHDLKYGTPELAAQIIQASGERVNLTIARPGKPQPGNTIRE

T2: PDZRN3_1, Q9UPQ7
T2 sequence (Q9UPQ7 244-349, limits assumed, looked up): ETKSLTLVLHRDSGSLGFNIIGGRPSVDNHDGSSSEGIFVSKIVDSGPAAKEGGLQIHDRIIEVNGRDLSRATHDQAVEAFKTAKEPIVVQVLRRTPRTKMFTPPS

T3: DVL3, Q92997
T3 sequence (Q92997 244-331, limits assumed, looked up): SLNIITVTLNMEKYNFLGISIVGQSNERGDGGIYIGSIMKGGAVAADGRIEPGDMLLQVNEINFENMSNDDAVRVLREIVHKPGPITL

T4: APBA3_1, O96018
T4 sequence (O96018 389-490, limits assumed, looked up): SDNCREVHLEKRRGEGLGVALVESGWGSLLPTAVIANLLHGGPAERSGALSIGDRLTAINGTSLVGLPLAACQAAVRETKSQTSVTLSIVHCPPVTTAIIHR

T5: MPDZ_12, O75970
T5 sequence (O75970 1857-1958, limits assumed, looked up): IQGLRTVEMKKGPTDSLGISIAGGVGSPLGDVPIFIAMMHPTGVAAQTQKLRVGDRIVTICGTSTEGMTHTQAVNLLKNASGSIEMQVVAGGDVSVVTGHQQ

T6: PDZD7_3, Q9H5P4
T6 sequence (Q9H5P4 857-944, limits assumed, looked up): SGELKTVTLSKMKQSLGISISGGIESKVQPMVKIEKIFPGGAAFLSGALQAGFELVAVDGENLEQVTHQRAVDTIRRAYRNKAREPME

T7: GRIP1_2, Q9Y3R0
T7 sequence (Q9Y3R0 145-248, limits assumed, looked up): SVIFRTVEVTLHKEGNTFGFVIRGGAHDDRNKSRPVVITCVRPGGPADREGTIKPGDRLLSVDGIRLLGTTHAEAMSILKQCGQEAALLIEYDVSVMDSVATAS

T8: HTRA3, P83110
T8 sequence (P83110 354-453, limits assumed, looked up): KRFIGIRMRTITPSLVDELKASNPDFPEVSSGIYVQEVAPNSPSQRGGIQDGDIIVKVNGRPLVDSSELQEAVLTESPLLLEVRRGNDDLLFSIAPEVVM

T9: LIN7A, O14910
T9 sequence (O14910 103-200, limits assumed, looked up): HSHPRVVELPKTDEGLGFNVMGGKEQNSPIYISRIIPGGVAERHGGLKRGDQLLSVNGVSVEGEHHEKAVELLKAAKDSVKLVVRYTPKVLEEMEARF

T10: DFNB31_1, Q9P202
T10 sequence (Q9P202 135-233, limits assumed, looked up): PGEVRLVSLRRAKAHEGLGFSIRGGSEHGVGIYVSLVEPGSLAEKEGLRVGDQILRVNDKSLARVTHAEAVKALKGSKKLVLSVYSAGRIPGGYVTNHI

T11: CARD11, Q9BXL7
T11 sequence (Q9BXL7 662-765, limits assumed, looked up): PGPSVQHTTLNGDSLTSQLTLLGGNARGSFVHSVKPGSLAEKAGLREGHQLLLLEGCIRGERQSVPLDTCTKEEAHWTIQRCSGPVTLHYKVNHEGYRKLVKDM

B1: EFNB3, Q15768 (peptide)
chain: QSPPNIYYKV
B2: DENND5A, Q6IQ26 (peptide)
chain: ETSLVKGIDI
B3: MCM7, P33993 (peptide)
chain: NASRTRITFV
B4: SSTR5, P35346 (peptide)
chain: ANGLMQTSKL

Tests used:
Assay in all cases: holdup assay
Set-up in all cases: key: below the threshold = too weak to quantify, mostly under pKd 3.1 to 4
Details in all cases: plain residues with an end cap or a label only (N-terminal biotin on a linker: ado-ado)
LNX2_2, Q8N448 = biological target: T1, LNX2_2, Q8N448
PDZRN3_1, Q9UPQ7 = biological target: T2, PDZRN3_1, Q9UPQ7
Inadl_9, Q8NI35 = biological target: Inadl_9, Q8NI35
Inadl_9, Q8NI35, sequence (Q8NI35 1530-1615): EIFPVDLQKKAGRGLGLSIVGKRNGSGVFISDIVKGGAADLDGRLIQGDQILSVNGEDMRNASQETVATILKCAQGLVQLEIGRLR

NHERF4_4, Q86UT5 = biological target: NHERF4_4, Q86UT5
NHERF4_4, Q86UT5, sequence (Q86UT5 464-550): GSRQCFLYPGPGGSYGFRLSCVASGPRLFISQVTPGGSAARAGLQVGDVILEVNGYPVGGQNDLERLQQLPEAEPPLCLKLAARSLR

MAGI1_1, Q96QZ7 = biological target: MAGI1_1, Q96QZ7
MAGI1_1, Q96QZ7, sequence (Q96QZ7 1-106): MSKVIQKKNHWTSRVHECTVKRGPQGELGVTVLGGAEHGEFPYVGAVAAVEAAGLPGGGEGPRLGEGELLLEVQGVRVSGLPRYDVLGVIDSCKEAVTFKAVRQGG

Inadl_1, Q8NI35 = biological target: Inadl_1, Q8NI35
Inadl_1, Q8NI35, sequence (Q8NI35 113-229): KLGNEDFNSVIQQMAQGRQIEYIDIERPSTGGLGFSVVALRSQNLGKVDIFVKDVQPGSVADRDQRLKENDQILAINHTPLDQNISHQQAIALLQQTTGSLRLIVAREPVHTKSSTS

SCRIB_3, Q14160 = biological target: SCRIB_3, Q14160
SCRIB_3, Q14160, sequence (Q14160 999-1103): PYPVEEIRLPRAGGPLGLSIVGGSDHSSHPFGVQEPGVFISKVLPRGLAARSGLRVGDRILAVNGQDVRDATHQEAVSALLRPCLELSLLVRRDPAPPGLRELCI

TJP2_1, Q9UDY2 = biological target: TJP2_1, Q9UDY2
TJP2_1, Q9UDY2, sequence (Q9UDY2 24-128): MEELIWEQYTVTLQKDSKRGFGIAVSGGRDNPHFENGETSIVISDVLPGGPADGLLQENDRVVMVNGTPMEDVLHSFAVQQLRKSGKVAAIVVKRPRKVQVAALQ

GORASP1, Q9BQQ3 = biological target: GORASP1, Q9BQQ3
GORASP1, Q9BQQ3, sequence (Q9BQQ3 1-208): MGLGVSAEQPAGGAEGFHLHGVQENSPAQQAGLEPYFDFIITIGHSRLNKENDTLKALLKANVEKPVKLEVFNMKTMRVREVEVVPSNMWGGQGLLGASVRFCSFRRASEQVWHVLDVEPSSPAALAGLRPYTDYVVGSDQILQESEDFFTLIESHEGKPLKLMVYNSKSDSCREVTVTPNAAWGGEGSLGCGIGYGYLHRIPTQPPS

GORASP2, Q9H8Y8 = biological target: GORASP2, Q9H8Y8
DVL3, Q92997 = biological target: T3, DVL3, Q92997
APBA3_1, O96018 = biological target: T4, APBA3_1, O96018
MPDZ_12, O75970 = biological target: T5, MPDZ_12, O75970
Inadl_4, Q8NI35 = biological target: Inadl_4, Q8NI35
Inadl_4, Q8NI35, sequence (Q8NI35 547-651): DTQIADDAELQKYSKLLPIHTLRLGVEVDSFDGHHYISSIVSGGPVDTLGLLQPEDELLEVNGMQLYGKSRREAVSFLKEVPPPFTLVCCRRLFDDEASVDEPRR

PDZD7_3, Q9H5P4 = biological target: T6, PDZD7_3, Q9H5P4
GRIP2_7, Q9C0E4 = biological target: GRIP2_7, Q9C0E4
GRIP2_7, Q9C0E4, sequence (Q9C0E4 934-1023): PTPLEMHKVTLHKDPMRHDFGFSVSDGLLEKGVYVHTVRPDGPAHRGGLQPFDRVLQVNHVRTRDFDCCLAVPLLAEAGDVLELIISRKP

GRIP1_2, Q9Y3R0 = biological target: T7, GRIP1_2, Q9Y3R0
LAP2, Q96RT1 = biological target: LAP2, Q96RT1
LAP2, Q96RT1, sequence (Q96RT1 other isoform, or with tags, fused parts or gaps): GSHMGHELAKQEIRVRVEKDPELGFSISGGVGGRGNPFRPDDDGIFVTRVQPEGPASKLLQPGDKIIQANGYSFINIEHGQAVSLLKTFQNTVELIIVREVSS

DLG2_2, Q15700 = biological target: DLG2_2, Q15700
DLG2_2, Q15700, sequence (Q15700 189-283): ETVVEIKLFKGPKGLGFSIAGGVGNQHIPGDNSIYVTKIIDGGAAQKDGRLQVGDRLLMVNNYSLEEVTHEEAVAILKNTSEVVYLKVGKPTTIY

HTRA3, P83110 = biological target: T8, HTRA3, P83110
LIN7A, O14910 = biological target: T9, LIN7A, O14910
GRIP2_3, Q9C0E4 = biological target: GRIP2_3, Q9C0E4
GRIP2_3, Q9C0E4, sequence (Q9C0E4 238-339): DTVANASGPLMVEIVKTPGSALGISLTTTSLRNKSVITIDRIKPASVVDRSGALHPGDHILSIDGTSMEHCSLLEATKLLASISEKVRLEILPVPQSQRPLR

DFNB31_1, Q9P202 = biological target: T10, DFNB31_1, Q9P202
GRIP2_6, Q9C0E4 = biological target: GRIP2_6, Q9C0E4
GRIP2_6, Q9C0E4, sequence (Q9C0E4 648-740): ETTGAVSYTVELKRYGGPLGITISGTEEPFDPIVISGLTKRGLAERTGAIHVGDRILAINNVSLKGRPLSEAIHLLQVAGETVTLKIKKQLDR

MAGI2_6, Q86UL8 = biological target: MAGI2_6, Q86UL8
MAGI2_6, Q86UL8, sequence (Q86UL8 1141-1229): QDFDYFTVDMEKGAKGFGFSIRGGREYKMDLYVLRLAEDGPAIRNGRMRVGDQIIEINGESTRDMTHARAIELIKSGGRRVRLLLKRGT

MAGI2_5, Q86UL8 = biological target: MAGI2_5, Q86UL8
MAGI2_5, Q86UL8, sequence (Q86UL8 915-1017): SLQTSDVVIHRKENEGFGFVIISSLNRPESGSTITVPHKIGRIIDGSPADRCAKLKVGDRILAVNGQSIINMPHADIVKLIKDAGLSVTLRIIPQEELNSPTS

CARD11, Q9BXL7 = biological target: T11, CARD11, Q9BXL7

Row | Binder | pKd (LNX2_2, Q8N448) | pKd (PDZRN3_1, Q9UPQ7) | pKd (Inadl_9, Q8NI35) | pKd (NHERF4_4, Q86UT5) | pKd (MAGI1_1, Q96QZ7) | pKd (Inadl_1, Q8NI35) | pKd (SCRIB_3, Q14160) | pKd (TJP2_1, Q9UDY2) | pKd (GORASP1, Q9BQQ3) | pKd (GORASP2, Q9H8Y8) | pKd (DVL3, Q92997) | pKd (APBA3_1, O96018) | pKd (MPDZ_12, O75970) | pKd (Inadl_4, Q8NI35) | pKd (PDZD7_3, Q9H5P4) | pKd (GRIP2_7, Q9C0E4) | pKd (GRIP1_2, Q9Y3R0) | pKd (LAP2, Q96RT1) | pKd (DLG2_2, Q15700) | pKd (HTRA3, P83110) | other results
1 | B1 | 4.27 | below the threshold | 3.53 | below the threshold | below the threshold | 3.99 | below the threshold | below the threshold | 4.75 | 4.99 | below the threshold | below the threshold | below the threshold | 3.51 | below the threshold | 4.41 | 3.52 | below the threshold | below the threshold | 3.53 | pKd (LIN7A, O14910): below the threshold; pKd (GRIP2_3, Q9C0E4): below the threshold; pKd (DFNB31_1, Q9P202): 3.55; pKd (GRIP2_6, Q9C0E4): 4.4; pKd (MAGI2_6, Q86UL8): below the threshold; pKd (MAGI2_5, Q86UL8): below the threshold; pKd (CARD11, Q9BXL7): below the threshold
2 | B2 | 4.13 | below the threshold | 3.63 | 3.87 | 3.55 | below the threshold | 3.51 | below the threshold | below the threshold | 3.79 | below the threshold | below the threshold | 3.6 | below the threshold | below the threshold | 3.58 | below the threshold | 3.57 | below the threshold | 3.91 | pKd (LIN7A, O14910): below the threshold; pKd (GRIP2_3, Q9C0E4): below the threshold; pKd (DFNB31_1, Q9P202): below the threshold; pKd (GRIP2_6, Q9C0E4): 3.55; pKd (MAGI2_6, Q86UL8): below the threshold; pKd (MAGI2_5, Q86UL8): below the threshold; pKd (CARD11, Q9BXL7): below the threshold
3 | B3 | 5.43 | 3.89 | 4.11 | below the threshold | below the threshold | below the threshold | 4.37 | 5.34 | 4.86 | 5.38 | 3.96 | below the threshold | 3.77 | below the threshold | 5.26 | 4.27 | below the threshold | 3.49 | 4.73 | 4.51 | pKd (LIN7A, O14910): below the threshold; pKd (GRIP2_3, Q9C0E4): below the threshold; pKd (DFNB31_1, Q9P202): below the threshold; pKd (GRIP2_6, Q9C0E4): 3.58; pKd (MAGI2_6, Q86UL8): 4.16; pKd (MAGI2_5, Q86UL8): 3.75; pKd (CARD11, Q9BXL7): below the threshold
4 | B4 | below the threshold | below the threshold | below the threshold | below the threshold | below the threshold | below the threshold | 3.5 | below the threshold | below the threshold | below the threshold | below the threshold | below the threshold | below the threshold | below the threshold | 4.22 | below the threshold | below the threshold | below the threshold | below the threshold | below the threshold | pKd (LIN7A, O14910): below the threshold; pKd (GRIP2_3, Q9C0E4): below the threshold; pKd (DFNB31_1, Q9P202): 4.34; pKd (GRIP2_6, Q9C0E4): below the threshold; pKd (MAGI2_6, Q86UL8): below the threshold; pKd (MAGI2_5, Q86UL8): below the threshold; pKd (CARD11, Q9BXL7): below the threshold
